Biological target: Link module from human TSG-6 (Link_TSG6) (human) (UniProt P98066)
Assay: AUC

stoichiometry N: 2
Substance: Link module from human TSG-6 (Link_TSG6) (from UniProt P98066 36-133) (domain or fragment)

— article PMC5073374
